Test results published in article PMC10183039.

Molecular target: Grp78 (rat (endogenous in hippocampus)) (UniProt P06761)
Experiment: co-IP; primary antibody on Protein A/G magnetic beads in PBS with 0.3% Triton X-100; hippocampal tissue of 3-month-old male rats (WT; APP KO or SNCA KO for comparison) homogenized in RIPA lysis buffer; lysate with beads overnight at 4 °C; four washes with PBST; western blotting

Sequence of Grp78 (rat (endogenous in hippocampus)) (P06761 19-654): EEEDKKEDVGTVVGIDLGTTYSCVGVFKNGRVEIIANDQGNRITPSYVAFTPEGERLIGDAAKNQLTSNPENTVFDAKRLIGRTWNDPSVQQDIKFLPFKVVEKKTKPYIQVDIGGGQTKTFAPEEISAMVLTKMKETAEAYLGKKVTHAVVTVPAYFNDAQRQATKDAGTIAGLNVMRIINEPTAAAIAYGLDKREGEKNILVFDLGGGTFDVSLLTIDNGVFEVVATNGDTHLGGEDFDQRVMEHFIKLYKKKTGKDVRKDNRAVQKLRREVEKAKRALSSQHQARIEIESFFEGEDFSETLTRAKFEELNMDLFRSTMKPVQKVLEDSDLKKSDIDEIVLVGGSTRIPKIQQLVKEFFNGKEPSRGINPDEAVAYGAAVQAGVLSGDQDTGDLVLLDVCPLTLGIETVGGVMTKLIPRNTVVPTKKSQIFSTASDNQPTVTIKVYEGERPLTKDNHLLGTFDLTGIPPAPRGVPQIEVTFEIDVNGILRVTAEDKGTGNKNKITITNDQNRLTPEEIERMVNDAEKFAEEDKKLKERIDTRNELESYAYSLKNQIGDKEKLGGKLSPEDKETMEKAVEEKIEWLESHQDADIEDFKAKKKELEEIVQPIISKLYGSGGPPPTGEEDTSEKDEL
Sequence of IP3R1, P29994 1-2750 (receptor) (P29994 whole entry): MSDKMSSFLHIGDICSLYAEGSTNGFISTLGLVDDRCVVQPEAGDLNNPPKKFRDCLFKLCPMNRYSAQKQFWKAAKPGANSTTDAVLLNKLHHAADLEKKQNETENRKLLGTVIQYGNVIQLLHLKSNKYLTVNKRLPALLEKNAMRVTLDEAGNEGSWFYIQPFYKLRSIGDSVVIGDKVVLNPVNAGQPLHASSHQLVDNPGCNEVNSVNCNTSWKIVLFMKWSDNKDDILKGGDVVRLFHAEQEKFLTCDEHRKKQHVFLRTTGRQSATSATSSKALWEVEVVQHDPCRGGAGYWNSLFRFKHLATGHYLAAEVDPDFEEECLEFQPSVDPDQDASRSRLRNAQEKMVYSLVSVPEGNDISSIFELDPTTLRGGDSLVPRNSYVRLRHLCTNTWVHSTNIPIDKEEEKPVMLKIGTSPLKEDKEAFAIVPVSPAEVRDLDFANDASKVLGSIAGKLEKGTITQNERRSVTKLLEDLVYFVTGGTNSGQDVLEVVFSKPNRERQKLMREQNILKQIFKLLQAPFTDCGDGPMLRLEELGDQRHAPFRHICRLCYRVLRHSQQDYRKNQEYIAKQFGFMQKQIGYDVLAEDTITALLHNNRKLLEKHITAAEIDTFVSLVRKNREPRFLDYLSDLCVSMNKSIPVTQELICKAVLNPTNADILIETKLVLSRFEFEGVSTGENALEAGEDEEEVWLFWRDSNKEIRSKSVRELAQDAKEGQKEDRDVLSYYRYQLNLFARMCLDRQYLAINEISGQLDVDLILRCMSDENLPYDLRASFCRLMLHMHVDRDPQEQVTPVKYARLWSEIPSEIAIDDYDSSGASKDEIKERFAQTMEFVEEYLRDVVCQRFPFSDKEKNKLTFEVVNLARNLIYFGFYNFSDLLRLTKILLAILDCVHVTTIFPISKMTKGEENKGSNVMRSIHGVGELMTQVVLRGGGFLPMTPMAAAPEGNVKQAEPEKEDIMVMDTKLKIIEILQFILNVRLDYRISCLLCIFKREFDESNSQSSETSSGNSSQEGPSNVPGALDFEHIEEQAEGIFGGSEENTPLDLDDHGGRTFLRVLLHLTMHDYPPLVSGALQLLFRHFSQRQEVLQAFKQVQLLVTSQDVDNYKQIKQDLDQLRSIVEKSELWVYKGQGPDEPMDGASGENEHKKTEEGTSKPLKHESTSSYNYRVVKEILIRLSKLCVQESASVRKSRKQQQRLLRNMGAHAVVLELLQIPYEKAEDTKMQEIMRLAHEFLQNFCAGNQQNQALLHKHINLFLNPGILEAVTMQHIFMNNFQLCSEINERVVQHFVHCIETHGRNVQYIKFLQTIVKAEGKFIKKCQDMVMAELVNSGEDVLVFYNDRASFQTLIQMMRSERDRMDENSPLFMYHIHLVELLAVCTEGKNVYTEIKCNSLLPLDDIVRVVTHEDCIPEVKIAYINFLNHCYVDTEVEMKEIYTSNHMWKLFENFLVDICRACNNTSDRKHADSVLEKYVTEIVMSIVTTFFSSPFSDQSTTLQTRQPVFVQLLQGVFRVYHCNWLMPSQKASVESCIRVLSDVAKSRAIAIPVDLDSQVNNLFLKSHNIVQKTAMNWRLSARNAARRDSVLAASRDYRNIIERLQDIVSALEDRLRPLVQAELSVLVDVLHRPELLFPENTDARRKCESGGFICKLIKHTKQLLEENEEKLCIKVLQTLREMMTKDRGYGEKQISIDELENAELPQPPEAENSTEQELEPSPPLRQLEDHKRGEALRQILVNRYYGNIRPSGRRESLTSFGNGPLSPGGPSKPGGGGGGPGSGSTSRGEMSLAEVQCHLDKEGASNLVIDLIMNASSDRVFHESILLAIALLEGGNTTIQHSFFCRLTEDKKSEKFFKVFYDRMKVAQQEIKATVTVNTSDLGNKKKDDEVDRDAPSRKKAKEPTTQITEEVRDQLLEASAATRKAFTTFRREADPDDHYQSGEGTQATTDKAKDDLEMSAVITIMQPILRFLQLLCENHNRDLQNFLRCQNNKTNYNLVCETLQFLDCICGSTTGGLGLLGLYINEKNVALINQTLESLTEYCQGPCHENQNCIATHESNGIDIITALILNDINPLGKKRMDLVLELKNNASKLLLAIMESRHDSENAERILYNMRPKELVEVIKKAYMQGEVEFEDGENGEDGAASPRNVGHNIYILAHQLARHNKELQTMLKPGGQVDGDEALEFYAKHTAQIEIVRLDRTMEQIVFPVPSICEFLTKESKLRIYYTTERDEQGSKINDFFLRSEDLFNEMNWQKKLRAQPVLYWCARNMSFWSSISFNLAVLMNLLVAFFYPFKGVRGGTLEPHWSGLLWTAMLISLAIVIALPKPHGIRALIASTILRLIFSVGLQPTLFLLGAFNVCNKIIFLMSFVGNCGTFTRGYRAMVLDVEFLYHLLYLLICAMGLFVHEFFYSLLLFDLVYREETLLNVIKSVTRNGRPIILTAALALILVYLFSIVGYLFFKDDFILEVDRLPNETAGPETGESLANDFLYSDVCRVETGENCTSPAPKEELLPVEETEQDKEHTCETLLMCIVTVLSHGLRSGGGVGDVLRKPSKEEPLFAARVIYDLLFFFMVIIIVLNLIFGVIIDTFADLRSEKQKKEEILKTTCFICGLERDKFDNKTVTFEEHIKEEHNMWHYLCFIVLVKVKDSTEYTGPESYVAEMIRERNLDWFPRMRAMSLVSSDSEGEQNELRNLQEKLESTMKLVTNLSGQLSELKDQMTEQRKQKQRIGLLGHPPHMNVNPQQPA

- fold of IP3R1 co-immunoprecipitated with Grp78, APP KO lysate against WT lysate: 1.49 fold
Substance: IP3R1, P29994 1-2750 (receptor)
